# Results as given in the nanobody polyreactivity screen of Harvey et al. (2022).
# Test: yeast display, Sf9 membrane polyspecificity reagent, FACS + sequencing; frameworks hold sequencing errors
# Summary of the method: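 A nanobody's polyreactivity label depends on the gate it was sorted from. Yeast display cells were stained with 10% biotinylated, detergent-solubilized Sf9 membrane reagent for 1 hour at 4 °C, enriched on streptavidin microbeads and sorted by FACS. The low and high (top ~1%) gates were set on anti-HA fluorescence for expression and streptavidin fluorescence for reagent binding.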
row,Sequence,polyreactivity (PSR sort gate)
1,QVQLQESGADLEQAGGSLRLSFTASGTISDVRVMAWYRQAPGKERELVATISYVTITYYADSVKGRFTISRDSEKHRVSADDEPETGRYRGVLLRYYWGLGTQVTVSS,low polyreactivity
2,QVQLQESGAGLLQAGGCLSCTASGTIFGQGDMGWYRQAPGKERELLATINDGASTYYADSVKGRFTISRDKAKNTVYLKKNSLKPDDTAVDYFAVFTDITNYFGYWGQATQVTVSS,low polyreactivity
3,QVQLQESGCGLVQEGGSLRPSCAASGSISEGVPMGWSRQAPGEERELVATTVMGATTNYADSVKGRFTISRGNANNTVYLQMISLKPDETAVYYCAAPLRYDKGFSFWGQGTQVTVSS,low polyreactivity
4,QVQLQESGCRLVQAGGRLRMSCAASGNIIDADIMGWYRQAPGKERELVASITDGRRTNYADSVKGRYTNSRDSEKNTVYMQMNSLKPEDTAVYYCAAIAYPVVPTYFDYDSDYFHWGQGTQVTVSS,high polyreactivity
5,QVQLQESGDGLVQAVGSLRLSCAASGYISGYYNMGWYRQAPGKERELVAGIDAFGSSTNYADCVKGRFTISRDNAKNTVYLEMNSLKPEDTAVYYFAARPYGDRLFSYWGQGTQVTVSS,low polyreactivity
6,QVQLQESGGCLVLAGGSLRLSCAASGYIFDTCPMGWYRQAPGKEREFVASIDHGSNTYYADSVKGRFTISRDSAKNTVYLQMNSLKPEDTAVYYCAVRDDGSYTYGNWGQGTQVTVSS,high polyreactivity
7,QVQLQESGGGLEQAGGSLRLSCAASGYISDIGTMGWYRQAPGKEREFVATIVVGSTTNYADSVKGRFTISRDNAKNTVYLKPESGRYRGVLLRGWLLAVGKFTYWGQGTQETVSS,low polyreactivity
8,QVQLQESGGGLLQAGGTLRLSCAASGSIFGYSGMGWYRQAPGKERELVAGIDYGTITNYADSVKGRFTISRDNAKNTVYLQKYSLKPADTAVYYCATDIHSVHNHRDKHVYDYWGQGTQVTVSS,low polyreactivity
9,QVQLQESGGGLMQAGVSQRLSCAASGSISYYSDMGWYRQAPRKEREFVAGIGYGTTTYYADSVKGRFTTSRDNAKNTVYLQMISMKPEDTAVYYCAAYQGNGYEFYYWGQGTQVTVRS,low polyreactivity
10,QVQLQESGGGLVKAGGSLRLSCAASGNISNHNDMGWYRQAPGKEREFVAGITAGGITNYADSVKGRFTISRDNAKNTGYLQMNSLKPEDTAVYYCAAYPDYAKSYGYWGQGTQATVSS,low polyreactivity
11,QVQLQESGGGLVLAGGSLRLSCAASGNIFVYSYMGWYRQAPGKEREFVAAIGAGSTTYYADSVSRFTISRDNAKNTVYLQMNSLKPEDTAVYYCNAEITVNDDDYWGQGTQVTVSS,low polyreactivity
12,QVQLQESGGGLVLAGGSLRLSCSASGNISFYGSMGWYRQAPGKESEFVATIDPGTNTNYADSVKDRFTISRDNAKNTVYLQMNSLKPEDTAVYYCAVEAGSDWPYRYWGQGTQVTVSS,low polyreactivity
13,QVQLQESGGGLVLAGGSLRLSCSASGNNSVYGSMGWYRQAPGKEREFVATIDPGTNTNYADSVKDRFTISRDNAKNTVYLQMNSLKPEDTAVYYCAVEAGSDWPYRYWGQGTQVTVSS,low polyreactivity
14,QVQLQESGGGLVQACGSLRLSCAASGYIFSHQYMGWYRQAPGKERELVASISPGATTNYADSVKGRFTISRDNAKNTVYLQMNSLKPEDTAVYYCARRYRPKYGYWGQGTQVTVSS,high polyreactivity
15,QVQLQESGGGLVQACGSLRLSCAASGYIFSHQYMGWYRQAPGKERELVASISPGATTNYADSVKGRFTISRDNAKNTVYLQMNSLKPEDTAVYYYAVYQILDRRLSYWGQGTQVTVSC,high polyreactivity
16,QVQLQESGGGLVQACGSQRLSCAASGSISEGQDKGWYRRAPGKEREFVAGIAPGATTYYADSEKGRFTISRDNAKNTVYLQMNSLKPEDTAVYFCAARSVTETDHDYWGQGTQVTVSS,low polyreactivity
17,QVQLQESGGGLVQADGSLRLSCAASGSIIGYYYMGWYRQAPGKDRELVATINNCGITNYADSVKGLFTISRDNAKNTVYLQMNSLKPDDTAVYYCAADEYAQRDLGYWGQGTQVTVSN,low polyreactivity
18,QVQLQESGGGLVQAGASLRLSCAASSNNSTLDVMGWYRQAPGKEREFVASIGSGGITNYADSVKGRFTISRDNAKNTVYLQMNSLKPEDTAVYYCAVLIQAYTDLIYWGQGTQVTLSS,high polyreactivity
19,QVQLQESGGGLVQAGGCLSCTASGTIFGQGDMGWYRQAPGKERELVATINDGASTYYADSVKGRFTISRDKAKNTVYLQKNSLKPDDTAVYYCAVFKDITTYFGYLGQGTQVTVSS,low polyreactivity
20,QVQLQESGGGLVQAGGDLRLICAASGNIFRDYIMGWYRQAPGKEREFVAGIDRGANTNYADSVIGRFTISRDNAKNSVFLQMNSRKPEVTAVYYCAVHNAIGPDFIYWGQGTQVTVSS,low polyreactivity
21,QVQLQESGGGLVQAGGILRLSCAACGNIFPSAVMGWYRQALGKEREFVATINSGSNTYYADSVKGRFTISRDNAKNTVYLQMNSLNLEDNAVYYCAAYFKLPAWHTYWGQGTQVTVSS,low polyreactivity
22,QVQLQESGGGLVQAGGILRMSCAASGTIFSEANMGWYRQAPGKERELVATIGQGSTTNYADSVKGRFTISRDNAKNTVYLQMNSLKPEETAVYYCAVVTVDAVGFVYWCQGTQVTVSS,low polyreactivity

row,Sequence,polyreactivity (PSR sort gate)
1,QVQLQESGGGLVQAGGNLRLSCAACGNIFPSAVMGWYRQALGKEREFVATINSGSNTYYADSVKGRFTISRDHAKNTVYLQTNSLKLEDTAVYYCAAYFKLPAWHTYWGQGTQVTVSS,low polyreactivity
2,QVQLQESGGGLVQAGGRLRLSCAASGTISGPHVMGWYRQAPGKEREFFAAINVGANTYYADNVKGRYTISRDNAKNTVYLQMNSLKPEDTAVYYCAAVYYGDIGHEYWGQGTQVTVSC,low polyreactivity
3,QVQLQESGGGLVQAGGRLSLSRAASGFISGTYCMGCYRQTPGQDREFVAGIGNGAITYYADSAKGCFTISRDNAKNAVYLQMNSLKQEETAVYYCAADGQWYYAPFRGGDYENDYWGQGTQVTVSS,low polyreactivity
4,QVQLQESGGGLVQAGGSLCLSCAASGTIFFDGDMGWYRQAPGKEREFVAAINPGGSAYNADSVKGRLPLAAITHTVYLQMNSLKPEDTAVYYCSAKLFDVYGYYYWGQGTHVTVSS,low polyreactivity
5,QVQLQESGGGLVQAGGSLLSCAASGTISWVDEMGWYRQAPGNERELVAGIAGGGNTNYADSVKGRFTISRDNAKNTVYLQMNSLDTAVYSCAVVGFGRGTHIYWGQGTQVTVSS,high polyreactivity
6,QVQLQESGGGLVQAGGSLLSCAASGTISWVDEMGWYRQAPGNERELVAGIAGGGNTNYADSVKGRFTISRDNAKNTVYLQMNSLDTAVYYCAVVGFGLGTHIYWGQGTQVTVSS,high polyreactivity
7,QVQLQESGGGLVQAGGSLLSCAASGTISYYREMGCYRQAPGKERELVAGIGVGTITYYADSVKGRFTISRDNAKNTVYLQLNSLKPEDNAVYYCAAHIDGNDSHAYWGQGTQVTVSS,low polyreactivity
8,QVQLQESGGGLVQAGGSLLSCAASGTISYYREMGWYRPAPGKERELVAGIGVGTITYYADSVKGRFTISRDNAKNTVYLQMNSRKPEDTAVYYCAAHIDGNDSHAYWGQGTQVTVSS,low polyreactivity
9,QVQLQESGGGLVQAGGSLLSCAASGTISYYREMGWYRQAPGKERELDAGIGVGTITSYADSVKGRFTISRDNAKNTVYLQMNSLKPEDTAVYYCAAHIDGNDSHAYWGQGTQVTVSC,low polyreactivity
10,QVQLQESGGGLVQAGGSLLSCAASGTISYYREMGWYRQAPGKERELVAGIGVGTITYYADSVKGRITISRDNAKNTVYLQMNSLKPEDTAVYYCEAHIDGNDSHAYWGQGTQVTVSS,low polyreactivity
11,QVQLQESGGGLVQAGGSLRLGCAASGNISDAGYMGWYRQAPGKEREFVAAIAAGSNTNYADSVKGRFTISRDNAKNTVNLQMNSLKPEDTAVFYCAVASYARVQYEYWGQGTQVTVNS,low polyreactivity
12,QVQLQESGGGLVQAGGSLRLGCAASGNISDAGYMGWYRQAPGKEREFVAAIAAGSTTNYADSVKGRFTISRDNAKNTVYLQMNSLKPEDTAVFYCAVASYARVQFEYWGQGTQVTVNS,low polyreactivity
13,QVQLQESGGGLVQAGGSLRLGCAASGNISDPGYMGWYRQAPGKEREFVAAIAAGSNTNYADSVKGRFTISRDNAKNTVYLLMNSLKPEDTAVFYCAVDSYARVQYEYWGQGTQVTVYS,low polyreactivity
14,QVQLQESGGGLVQAGGSLRLSCAASCTISQEDWMGWYRQAPGKEREFVAAIGLGSNTNYADSLKGRFTISRDNAKNTVYLQMNSLKPEDTAVSYCAVSVWQYSDHVYRGQGTQVTVSS,low polyreactivity
15,QVQLQESGGGLVQAGGSLRLSCAASGNFFDADIMGWYRQAPGKERELVASITDGGSTNYADSVKGRFTISRGNTKNTVYLLMNCLKPEDTSVYYCAAIAYPDMPTYFDYNSDYFYWGQGTQVTVSS,high polyreactivity
16,QVQLQESGGGLVQAGGSLRLSCAASGNIFEADIMGWYHQAQGKERELVASITDGGSTNYADSVKGRFTINRDNAKNNVYLQMNSLKPEDTAVYYCAAIAYPDIPTYFDYDSDYFYWGQGTQVTVSS,high polyreactivity
17,QVQLQESGGGLVQAGGSLRLSCAASGNIFSAGGMGWYRQAPVNERELVAGIGTGTSTNYADSVKGRFTISRDNAKNTVYLQMNSLKPEDTAVYYCAAAYYSGLSHWYWGQGTQVTVSS,low polyreactivity
18,QVQLQESGGGLVQAGGSLRLSCAASGNIFSSGVMGWYRQAPGKERELVATINVGANTNYADSVKGRFTISRDNAKNTVYLQMNRLKPEDTAVYYCAVDKGDDGSFYLWGQGTQVTVSS,high polyreactivity
19,QVQLQESGGGLVQAGGSLRLSCAASGNISVTGFMGWYRQAPGKERELVASIGIGGTTYYADSVKGRFSISRDNAKNTVYLQINSLKPVDTAVYYCAARYLYYAYSYWGQGTQVTVRS,low polyreactivity
20,QVQLQESGGGLVQAGGSLRLSCAASGNIVDADIMGWYRQAPGKERELVASITDGGSTNYADSVKGRFTISSDNAKNTVYLQMNSLKPEDTAVYYCAAIAYPDIPTYFDYDSEYFYWGQGTQVTVSS,low polyreactivity
21,QVQLQESGGGLVQAGGSLRLSCAASGNIVDADIMGWYRQAPRKERELVASITDGGSTNYADSVKGRFTISRDNAKNTVYLQMNSLIPEDTAVYYCAAISYPDIPTYFDYDSEYFYWGQGTQVSVSS,low polyreactivity
22,QVQLQESGGGLVQAGGSLRLSCAASGPISGPHVMGWYRQAPGKEREFVAAINVGANTYYADNVKGRFTISRDNATNTVYLQMNSLKPEDTAVYYCAAVYYGDIGHEYWGQGTQVTVSC,low polyreactivity
